Data published in patent US20220332804A1 (CSL INNOVATION, published 2022).

Legend:
Test in all cases: SPR, KD relative to WT C2;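 further: biacore SPR at 37 °C, anti-C2 mAbs captured via immobilised goat anti-human IgG, C2 alanine or serine surface mutants as analytes, 1:1 model fitted, double-referenced sensograms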
human C2 W420A = biological target: T1, human C2 W420A (human, UniProt P06681 21-752)
T1 sequence: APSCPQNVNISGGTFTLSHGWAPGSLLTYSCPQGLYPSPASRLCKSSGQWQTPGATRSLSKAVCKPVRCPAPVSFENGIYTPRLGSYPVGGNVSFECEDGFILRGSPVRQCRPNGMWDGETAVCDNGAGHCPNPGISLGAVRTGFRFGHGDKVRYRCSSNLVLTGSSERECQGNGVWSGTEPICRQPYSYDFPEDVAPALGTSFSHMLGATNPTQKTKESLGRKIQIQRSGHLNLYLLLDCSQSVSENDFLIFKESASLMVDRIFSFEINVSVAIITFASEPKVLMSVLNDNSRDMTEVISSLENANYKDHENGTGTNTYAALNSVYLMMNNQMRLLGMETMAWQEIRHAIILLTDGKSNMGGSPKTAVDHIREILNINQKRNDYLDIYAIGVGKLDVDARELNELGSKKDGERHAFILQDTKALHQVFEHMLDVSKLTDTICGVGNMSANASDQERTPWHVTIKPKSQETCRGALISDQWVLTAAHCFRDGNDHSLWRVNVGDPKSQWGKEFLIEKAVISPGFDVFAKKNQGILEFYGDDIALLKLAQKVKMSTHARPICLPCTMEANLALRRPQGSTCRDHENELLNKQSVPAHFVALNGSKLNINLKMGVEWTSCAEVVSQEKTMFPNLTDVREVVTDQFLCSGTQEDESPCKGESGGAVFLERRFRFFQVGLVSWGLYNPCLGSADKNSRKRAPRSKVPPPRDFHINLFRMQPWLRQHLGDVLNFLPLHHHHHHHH

human C2 D431A = biological target: T2, human C2 D431A (human, UniProt P06681 21-752)
T2 sequence: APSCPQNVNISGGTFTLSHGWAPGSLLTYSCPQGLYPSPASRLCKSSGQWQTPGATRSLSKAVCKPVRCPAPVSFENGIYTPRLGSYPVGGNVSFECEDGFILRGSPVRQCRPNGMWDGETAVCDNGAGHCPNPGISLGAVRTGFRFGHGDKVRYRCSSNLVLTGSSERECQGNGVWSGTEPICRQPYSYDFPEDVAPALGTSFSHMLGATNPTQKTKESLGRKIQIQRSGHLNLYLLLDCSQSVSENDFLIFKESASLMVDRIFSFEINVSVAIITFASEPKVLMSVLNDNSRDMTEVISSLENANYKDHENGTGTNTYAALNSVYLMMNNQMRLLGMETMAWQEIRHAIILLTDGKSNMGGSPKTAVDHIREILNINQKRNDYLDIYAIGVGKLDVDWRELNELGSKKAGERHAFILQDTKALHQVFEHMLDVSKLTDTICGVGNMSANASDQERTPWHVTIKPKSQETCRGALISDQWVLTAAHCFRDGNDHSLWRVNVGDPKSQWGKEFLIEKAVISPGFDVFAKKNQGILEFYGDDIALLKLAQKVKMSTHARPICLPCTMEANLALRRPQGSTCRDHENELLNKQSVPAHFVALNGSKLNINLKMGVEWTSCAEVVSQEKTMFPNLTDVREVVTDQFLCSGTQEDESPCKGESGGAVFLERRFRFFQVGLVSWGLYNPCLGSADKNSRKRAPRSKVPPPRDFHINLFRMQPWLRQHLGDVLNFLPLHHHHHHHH

human C2 N467A = biological target: T3, human C2 N467A (human, UniProt P06681 21-752)
T3 sequence: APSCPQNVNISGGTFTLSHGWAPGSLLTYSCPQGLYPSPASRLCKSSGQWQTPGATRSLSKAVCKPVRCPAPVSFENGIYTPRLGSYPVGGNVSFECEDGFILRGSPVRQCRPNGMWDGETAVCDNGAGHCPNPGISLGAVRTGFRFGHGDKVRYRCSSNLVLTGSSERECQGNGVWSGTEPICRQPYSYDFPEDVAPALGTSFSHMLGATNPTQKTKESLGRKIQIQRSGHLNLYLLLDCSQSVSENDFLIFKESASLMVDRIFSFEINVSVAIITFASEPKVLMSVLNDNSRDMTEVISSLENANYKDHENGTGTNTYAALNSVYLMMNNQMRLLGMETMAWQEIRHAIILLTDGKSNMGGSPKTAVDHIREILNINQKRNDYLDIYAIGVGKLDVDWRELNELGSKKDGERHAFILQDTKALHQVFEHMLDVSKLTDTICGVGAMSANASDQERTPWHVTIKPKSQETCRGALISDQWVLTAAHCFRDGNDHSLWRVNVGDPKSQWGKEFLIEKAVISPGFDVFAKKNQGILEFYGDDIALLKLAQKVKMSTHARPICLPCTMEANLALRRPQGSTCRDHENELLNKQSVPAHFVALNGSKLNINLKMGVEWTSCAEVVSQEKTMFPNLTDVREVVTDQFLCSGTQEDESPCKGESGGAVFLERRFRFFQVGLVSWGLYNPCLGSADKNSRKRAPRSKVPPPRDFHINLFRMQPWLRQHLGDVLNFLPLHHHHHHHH

human C2 G427A = biological target: T4, human C2 G427A (human, UniProt P06681 21-752)
T4 sequence: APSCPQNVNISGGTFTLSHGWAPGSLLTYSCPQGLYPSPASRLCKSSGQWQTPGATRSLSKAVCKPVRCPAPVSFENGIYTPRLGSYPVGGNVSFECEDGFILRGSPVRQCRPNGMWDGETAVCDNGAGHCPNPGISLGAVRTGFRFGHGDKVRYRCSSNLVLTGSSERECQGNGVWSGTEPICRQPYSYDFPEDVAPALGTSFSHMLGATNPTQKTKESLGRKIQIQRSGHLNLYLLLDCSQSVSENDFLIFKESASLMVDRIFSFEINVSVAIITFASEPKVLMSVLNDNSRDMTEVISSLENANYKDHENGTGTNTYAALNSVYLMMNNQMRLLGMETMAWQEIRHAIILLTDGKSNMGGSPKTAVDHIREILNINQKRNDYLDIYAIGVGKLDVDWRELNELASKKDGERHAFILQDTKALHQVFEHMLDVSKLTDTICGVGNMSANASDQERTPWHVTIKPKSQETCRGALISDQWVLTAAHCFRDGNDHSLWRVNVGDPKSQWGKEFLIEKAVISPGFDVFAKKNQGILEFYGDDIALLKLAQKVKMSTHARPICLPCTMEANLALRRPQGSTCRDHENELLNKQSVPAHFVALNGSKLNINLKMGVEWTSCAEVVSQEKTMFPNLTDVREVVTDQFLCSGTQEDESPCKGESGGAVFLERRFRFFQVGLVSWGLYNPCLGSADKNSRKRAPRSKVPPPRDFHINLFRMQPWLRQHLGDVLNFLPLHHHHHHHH

B1: RF16-226 (antibody, human IgG4 S228P, lambda)
heavy: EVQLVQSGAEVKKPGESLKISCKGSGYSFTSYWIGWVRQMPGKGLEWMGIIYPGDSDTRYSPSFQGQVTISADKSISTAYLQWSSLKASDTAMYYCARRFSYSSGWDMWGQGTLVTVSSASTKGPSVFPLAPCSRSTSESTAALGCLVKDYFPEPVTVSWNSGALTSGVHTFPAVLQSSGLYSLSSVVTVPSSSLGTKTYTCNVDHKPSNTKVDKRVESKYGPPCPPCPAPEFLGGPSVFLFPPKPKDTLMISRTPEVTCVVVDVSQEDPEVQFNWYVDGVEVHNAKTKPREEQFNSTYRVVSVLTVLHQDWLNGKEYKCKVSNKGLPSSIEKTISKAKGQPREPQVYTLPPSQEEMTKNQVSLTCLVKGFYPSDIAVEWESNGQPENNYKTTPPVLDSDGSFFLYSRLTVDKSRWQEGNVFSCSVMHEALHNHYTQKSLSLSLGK
light: SYELTQPPSVSVSPGQTARITCSGDALTSKYVAWYQQKSGLAPLLVIYEDTRRPSGIPAKFSGSSSGSVATLTISGAHGDDEADYYCYSTDASGHQRVFGGGTKLTVLSQPKAAPSVTLFPPSSEELQANKATLVCLISDFYPGAVTVAWKADGSPVKAGVETTKPSKQSNNKYAASSYLSLTPEQWKSHRSYSCQVTHEGSTVEKTVAPTECS
notes: pH-dependent anti-C2 antibody from a phage display library; also called WT
Fold diff (human C2 W420A): 2 fold | Fold diff (human C2 D431A): 4 fold | Fold diff (human C2 N467A): 2 fold | Fold diff (human C2 G427A): 0 fold
